We go through 13 molecules from patent US20200200749A1 (published 2020).

For orientation: EC50 means the concentration that produces a half-maximal response.

Read-outs that look alike come from different tables or passages of the source.

Assay in all cases: ELISA
In general terms: In an ELISA, binding on a coated surface is turned into a signal by an enzyme label.

Test [1] has as its target T1, BDBV GP (BDBV (Bundibugyo ebolavirus)).
Test [2] deals with MARV GP.
The target in another test is T2, SUDV GP (recombinant) (SUDV (Sudan ebolavirus), UniProt Q66814 33-650).
T2 chain: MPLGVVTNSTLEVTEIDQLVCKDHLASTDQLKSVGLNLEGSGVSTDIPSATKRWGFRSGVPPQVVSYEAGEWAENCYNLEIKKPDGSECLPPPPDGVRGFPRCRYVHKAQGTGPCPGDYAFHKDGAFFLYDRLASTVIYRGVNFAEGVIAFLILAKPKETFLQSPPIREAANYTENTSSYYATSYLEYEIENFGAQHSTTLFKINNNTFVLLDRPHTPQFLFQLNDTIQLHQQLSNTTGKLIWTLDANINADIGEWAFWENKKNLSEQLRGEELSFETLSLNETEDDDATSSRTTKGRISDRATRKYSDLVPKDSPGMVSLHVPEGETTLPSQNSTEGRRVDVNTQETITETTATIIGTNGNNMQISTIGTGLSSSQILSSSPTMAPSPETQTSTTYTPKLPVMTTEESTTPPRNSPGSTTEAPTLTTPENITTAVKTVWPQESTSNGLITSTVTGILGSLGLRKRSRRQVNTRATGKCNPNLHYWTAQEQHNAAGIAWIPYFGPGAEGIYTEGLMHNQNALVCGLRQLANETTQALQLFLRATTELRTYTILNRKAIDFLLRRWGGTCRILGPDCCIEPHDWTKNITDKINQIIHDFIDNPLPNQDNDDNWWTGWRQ

The next test addresses T3, EBOV sGP (EBOV (Ebola Zaire), UniProt P60170 33-324).
T3 chain: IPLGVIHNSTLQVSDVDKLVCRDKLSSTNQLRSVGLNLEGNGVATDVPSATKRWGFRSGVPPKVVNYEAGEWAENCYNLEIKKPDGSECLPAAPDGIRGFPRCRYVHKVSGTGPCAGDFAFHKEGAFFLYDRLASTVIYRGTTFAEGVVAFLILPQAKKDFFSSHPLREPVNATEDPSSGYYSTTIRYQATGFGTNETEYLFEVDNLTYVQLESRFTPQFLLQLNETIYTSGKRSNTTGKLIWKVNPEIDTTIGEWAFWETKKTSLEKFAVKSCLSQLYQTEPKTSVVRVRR

For test [3], the target named is T4, EBOV GP (recombinant, full-length extracellular domain) (EBOV (Ebola Zaire), UniProt Q05320 33-650).
T4 chain: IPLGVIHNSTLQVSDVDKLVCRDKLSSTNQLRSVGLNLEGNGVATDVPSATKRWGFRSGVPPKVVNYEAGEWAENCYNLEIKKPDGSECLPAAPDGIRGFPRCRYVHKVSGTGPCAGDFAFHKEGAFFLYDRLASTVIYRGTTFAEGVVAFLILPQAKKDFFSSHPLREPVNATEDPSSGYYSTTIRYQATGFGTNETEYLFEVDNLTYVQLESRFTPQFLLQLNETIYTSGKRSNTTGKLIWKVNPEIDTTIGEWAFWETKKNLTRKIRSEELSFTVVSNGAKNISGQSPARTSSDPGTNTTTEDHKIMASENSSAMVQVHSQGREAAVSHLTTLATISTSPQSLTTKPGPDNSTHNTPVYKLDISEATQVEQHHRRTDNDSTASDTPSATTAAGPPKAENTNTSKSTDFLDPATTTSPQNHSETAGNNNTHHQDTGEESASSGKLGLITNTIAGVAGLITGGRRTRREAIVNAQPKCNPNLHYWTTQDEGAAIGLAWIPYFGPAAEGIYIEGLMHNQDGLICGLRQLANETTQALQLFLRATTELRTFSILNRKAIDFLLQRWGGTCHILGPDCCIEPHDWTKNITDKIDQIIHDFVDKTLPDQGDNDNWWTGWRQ

The target in test [4] is T1, BDBV GP. The source holds these as a separate data set.
Test [5] addresses MARV GP. The source holds these as a separate data set.
The target in another test is BDBV sGP (BDBV (Bundibugyo ebolavirus)).

B1: 49 (antibody, V domains shown)
VH: EVQLVESGGGLVQPGGSLRLSCAASGFTFSSYEINWVRQAPGRGLEWVSYISSSGRTIYYADSVKGRFTISRDNAKNSLYLQMNSLRAEDTAVYYCAREPYVDGILYGAGDSYFDYWGQGTLVTVSS
VL: DIQMTQSPSSLSASVGDRVTITCRASQSISNYLNWYQQKPGKAPKVLIYAASSLQSGVSSRFSGSGSGTDFTLTISSLQPEDFATYFCQQSYNTPPVTFGQGTRLEIK
Turning to B1, the EC50 with BDBV GP [1] and in the test with MARV GP [2] was over 10 µg/mL throughout.

B2: EBOV49 (antibody, V domains shown)
VH: EVQLVESGGGLVQPGGSLRLSCAASGFTFSSYEINWVRQAPGRGLEWVSYISSSGRTIYYADSVKGRFTISRDNAKNSLYLQMNSLRAEDTAVYYCAREPYVDGILYGAGDSYFDYWGQGTLVTVSS
VL: DIQMTQSPSSLSASVGDRVTITCRASQSISNYLNWYQQKPGKAPKVLIYAASSLQSGVSSRFSGSGSGTDFTLTISSLQPEDFATYFCQQSYNTPPVTFGQGTRLEIK
As to B2, the figures for the EC50 (with SUDV GP (recombinant); with EBOV sGP; in test [3]) were over 10 µg/mL, 0.061 µg/mL and 0.262 µg/mL, respectively.

B3: 52 (antibody, V domains shown)
VH: QVQLQESGPGLVKPSETLSLNCTVSGGSISSYYWSWIRQPPGKGLEWIGYIYDSGRTKYNPSLKSRVTISLDTSKNQFSLKLSSVTAADTAVYYCASLGPFDKLWFGELLPGWFDPWGQGTLVTVSS
VL: EIVLTQSPATLSLSPGGRATLSCRASQSVHNYLAWYQQKSGQAPRLLIYDASNRATGIPARFSGSGSGTDFTLTISSLEPDDFAVYYCQHRSNWLTFGGGTKVEIK
For the molecule B3, the EC50 in the test with BDBV GP [1] is 1.84 µg/mL; in the test with MARV GP [2], over 10 µg/mL.

B4: EBOV52 (antibody, V domains shown)
VH: QVQLQESGPGLVKPSETLSLNCTVSGGSISSYYWSWIRQPPGKGLEWIGYIYDSGRTKYNPSLKSRVTISLDTSKNQFSLKLSSVTAADTAVYYCASLGPFDKLWFGELLPGWFDPWGQGTLVTVSS
VL: EIVLTQSPATLSLSPGGRATLSCRASQSVHNYLAWYQQKSGQAPRLLIYDASNRATGIPARFSGSGSGTDFTLTISSLEPDDFAVYYCQHRSNWLTFGGGTKVEIK
Turning to B4, the EC50 with SUDV GP (recombinant) is over 10 µg/mL; with EBOV sGP, 0.082 µg/mL; in test [3], 0.712 µg/mL.

B5: 270 (antibody, V domains shown)
VH: QVQLQESGPGLVKPSQTLSLTCTVSGASISRGLYYWSWIRQPAGKGLEWIGRIYTSGSINYNPSLKSRVTISVDTSKNQFSLRLSSVIATDTAVYYCVRDAPWGDFLTGYFGFYGMDVWGQGTLVTVSS
VL: DIVMTQSPSSLSASVGDRVTITCRASQSINTYLNWYQQKPGKAPKFLIYAASSLHSGVPSRFSGSGSGTDFTLTINSLQPDDFATYYCQQSFTTPYTFGQGTKLEIK
As to B5, the half-maximal effective concentration (EC50) in the test with BDBV GP [4] was 0.154 µg/mL; with MARV GP [5], over 10 µg/mL; with BDBV sGP it was 0.025 µg/mL.

B6: 324 (antibody, V domains shown)
VH: QVQLVQSGAEVKKPGASVKVSCKTSGYTFTSFEIHWVRQGSGQGLEWMGRMNPKSGDTVSAQKFQGRVTLTRDTSINAAYMELGSLSSEDTAVYYCARGPHVGEVVPGLMAGTYYFPLDVWGQGTLVTVSS
VL: DIQMTQSPSTLSASIGDRVTITCRASQSISRWLAWYQQKPGKAPKLLIYKVSDLQSGVPSRFSGSGYGTEFTLTIGSLQPDDLATYYCQQYDTYPWTFGQGTKLEIK
As to B6, the EC50 with BDBV GP [4] was 0.053 µg/mL; with MARV GP [5], over 10 µg/mL; with BDBV sGP, 0.012 µg/mL.

B7: 289 (antibody, V domains shown)
VH: QVQLVQSGAEVKKPGSSVKVSCKASGATFGSDTVTWVRQAPGQGLEWMGGIIPFFGEANYAQRFQGRVTITADKSTNTAYMELSSLRSEDTAVYFCARQINEMATFGEIHYYTYMDVWGQGTLVTVSS
VL: GSELTQDPAVSVALGQTVRITCQGDSLRNYYASWYQQKPRQAPVLVFYGKNNRPSGIPDRFSGSSSGNTASLTISGAQAEDEADYYCNSRDSSSNHLVFGGGTKLTVLS
Turning to B7, the concentration giving a half-maximal response (EC50) with BDBV GP [4] is 0.02 µg/mL; with MARV GP [5], over 10 µg/mL; with BDBV sGP it was 0.006 µg/mL.

B8: 87 (antibody, V domains shown)
VH: QVQLVQSGAEVKRPGASVKVSCKASGYTFTSYAISWVRQAPGQGLEWMGWISGNNGNTNYAQKLQGRLTMTTDTSTSTAYMELRSLRSDDTAVYYCARDADIVVVVGATGTYYYGMDVWGQGTLVTVSS
VL: DIVMTQSPSTLSASVGDRVTITCRASQSISSWLAWYQQKPGKAPKLLIYDASSLESGVPSRFSGSGSGTEFTLTISSLQPDDFATYYCQQYKSSLRTFGQGTQLEIK
As for B8, the EC50 with BDBV GP [1] is 1.39 µg/mL; with MARV GP [2], over 10 µg/mL.

B9: EBOV87 (antibody, V domains shown)
VH: QVQLVQSGAEVKRPGASVKVSCKASGYTFTSYAISWVRQAPGQGLEWMGWISGNNGNTNYAQKLQGRLTMTTDTSTSTAYMELRSLRSDDTAVYYCARDADIVVVVGATGTYYYGMDVWGQGTLVTVSS
VL: DIVMTQSPSTLSASVGDRVTITCRASQSISSWLAWYQQKPGKAPKLLIYDASSLESGVPSRFSGSGSGTEFTLTISSLQPDDFATYYCQQYKSSLRTFGQGTQLEIK
As to B9, the EC50 stood at 0.629 µg/mL with SUDV GP (recombinant), 0.051 µg/mL in the test with EBOV sGP and 0.724 µg/mL in test [3].

B10: EBOV62 (antibody, V domains shown)
VH: EVQLVESGGGLVQPGGSLRLSCAASGFTFSSYWMSWVRQAPGKGLEWVANIKQDGSAKYYVDSVKGRFTISRDNAKNSLYLQMNSLRAEDTAVYYCARDGLLGISDLLYPIYYFDYWGQGTLVTVSS
VL: DIVMTQSPSSLSASVGDRVTITCRASQNIGSYLNWYQQKPGKAPNLLMYAASSLQSGVPSRFSGSGSGTDFTLTITSLQPEDFATYYCQQSYSIPRTFGQGTQLEIK
Consider B10, for which the half-maximal effective concentration (EC50) was over 10 µg/mL in the test with SUDV GP (recombinant), 0.051 µg/mL with EBOV sGP and 0.228 µg/mL in test [3].

B11: 62 (antibody, V domains shown)
VH: EVQLVESGGGLVQPGGSLRLSCAASGFTFSSYWMSWVRQAPGKGLEWVANIKQDGSAKYYVDSVKGRFTISRDNAKNSLYLQMNSLRAEDTAVYYCARDGLLGISDLLYPIYYFDYWGQGTLVTVSS
VL: DIVMTQSPSSLSASVGDRVTITCRASQNIGSYLNWYQQKPGKAPNLLMYAASSLQSGVPSRFSGSGSGTDFTLTITSLQPEDFATYYCQQSYSIPRTFGQGTQLEIK
B11: the EC50 with BDBV GP [1] was 0.508 µg/mL; with MARV GP [2] it was over 10 µg/mL.

B12: EBOV63 (antibody, V domains shown)
VH: EVQLVESGGGLVKPGGSLRLSCAASGFTLNFYNMNWVRQAPGKGLEWVSSISSSSNYIYYADSVKGRFTISRDNARKSLYLQMNSLRAEDTAVYYCARDFVQLLIPQRDEWQGVHDYYGMDVWGQGTLVTVSS
VL: EIVLTQSPGTLSLSPGGRATLSCRASQSVSNSYLAWYQQKPGQAPRLLIYGASSRATGIPDRFSGSGSGTDFILTISRLEPEDFAVYYCQHYGSSQLTFGGGTKVEIK
Regarding B12, the figures for the EC50 (with SUDV GP (recombinant); in the test with EBOV sGP; in test [3]) were over 10 µg/mL, 0.038 µg/mL and 0.283 µg/mL, respectively.

B13: 63 (antibody, V domains shown)
VH: EVQLVESGGGLVKPGGSLRLSCAASGFTLNFYNMNWVRQAPGKGLEWVSSISSSSNYIYYADSVKGRFTISRDNARKSLYLQMNSLRAEDTAVYYCARDFVQLLIPQRDEWQGVHDYYGMDVWGQGTLVTVSS
VL: EIVLTQSPGTLSLSPGGRATLSCRASQSVSNSYLAWYQQKPGQAPRLLIYGASSRATGIPDRFSGSGSGTDFILTISRLEPEDFAVYYCQHYGSSQLTFGGGTKVEIK
As to B13, the EC50 with BDBV GP [1] and in the test with MARV GP [2] was over 10 µg/mL throughout.
